The values that follow come from patent US20240115742A1, “FLUORINATED FIBERS FOR MULTIMODAL 1H AND 19F MRI, ULTRASOUND, FLUORESCENCE DETECTION AND CONFORMATIONAL AND TEMPERATURE DETECTION BY 19F MRS” (New York University, priority 2022, published 2024).

Values joined by “and” are separate entries in the source; they are usually repeats but may differ in a detail not shown here. Equal values may be shown once.

A short description of one series: TEM of protein fibers. Type of series: physicochemical. The note with it: fibers. On the procedure:
Transmission Electron Microscopy. Transmission electron microscopy (TEM) images were taken with a FEI Talos L120C transmission electron microscope. Protein fiber samples were diluted to 50 μM and 3 μL was spotted on Formvar/carbon-coated copper grids followed by 5 μL wash with water, and 3 μL staining with 1% v/v uranyl acetate solution each with incubation times of 1 min at RT. Fibrils were sized in ImageJ software (Version 1.52q).
(§1) Transmission Electron Microscopy. Transmission electron microscopy (TEM) images were taken with a FEI Talos L120C transmission electron microscope. Samples were diluted to 50 μM and 3 μL was spotted on Formvar/carbon-coated copper grids followed by a 5 μL wash with water, and 3 μL staining with 1% v/v uranyl acetate solution each with incubation times of 1 min. Between steps, filter paper was used to wick the grids. Following imaging, fibrils were sized in ImageJ software (Version 1.52q).

Series [1] can be described thus: Tube inversion concentration-temperature phase diagram. The format is physicochemical. Conditions: for solubility limit: 50 mM Tris, 500 mM NaCl, pH 8.0; for UCST: at solubility limit, extent of gelation η 0.5. Here is the method:
Tube Inversion Test. Immediately after concentration to 2 mM, the protein was incubated at 4° C. over the course of two weeks after aliquoting 150 μL into a 2 mL Eppendorf tube. The samples were visually assessed for gelation by inverting the tubes at 12-hour time intervals thereafter, with gelled samples not flowing upon inversion.
Gelation. To study the relative gelation of Q2 as compared to the previously reported coiled-coil hydrogel, Q, protein was successfully expressed (FIG. 24), purified (FIG. 25), and concentrated to 2 mM (1% w/v) in Tris buffer (50 mM Tris, 500 mM NaCl) at pH 8.0. Purity of the protein was measured to be >99% by SDS-PAGE (FIG. 26) and concentration was measured by BCA assay. Immediately following concentration, the gelation process of Q2 was studied using the microrheology assay described previously following incubation at 4° C. Separately, 150 μL samples were aliquoted for tube inversion tests performed after 2 weeks of incubation for visual assessment of gelation over time at 4° C. (FIG. 19a-d) and at concentrations from 1 mM to 3.5 mM with temperatures 5° C. to 25° C. using 0.5 mM and 5° C. step sizes, respectively, to create a matrix-based phase diagram (FIG. 19e). Temperature and concentration ranges were selected based on preliminary tube-inversion testing at high and low ends of the ranges.
Thermoresponsiveness and material strength. UCST behavior of protein hydrogels was assessed by testing […] samples via tube inversion in 2 mL microtubes after incubation for two weeks at various temperatures and concentrations. Temperature conditions were modulated in the range of 5-40° C. The concentration range was modified depending on if precipitation was visually noticeable in the microtube at an earlier concentration, indicating a solubility limit to our phase diagram, as has been done previously. […] As done with Q2, the UCST of the hydrogels was determined using a bivariate linear relationship for the extent of gelation where tubes that passed gelation by tube inversion were assigned a value of 1 (shown in black in FIG. 52a and FIG. 64a-d) and tubes that failed gelation by tube inversion (shown in red in FIG. 52a and FIG. 64a-d) were assigned a value of 0. The heatmap in FIG. 52a and FIG. 64a-d was used to denote the range of extent of gelation where the equation was employed to solve for the UCST using the solubility limit and solving for an extent of gelation, η, value of 0.5. The UCSTs (FIG. 52b) for the hydrogels studied here were 13.0° C., 35.9° C., 33.6° C., 17.5° C., and 22.9° C. for Q3-7, respectively, as compared to 17.0° C. for Q and 22.0° C. for Q2 found previously. Bivariate regression allowed for solving the coefficients for the dependence of temperature and concentration on gelation.
Tube Inversion. Binary sol-gel behavior was assessed using tube inversion. Immediately after concentration to 2 mM, 150 μL of Q hydrogel variants were incubated in 2 mL microtubes at 4° C. for two weeks. Gelation was visually observed by inverting the microtube and inspecting the sample for flow from the top of tube.

A short description of another series: Parallel plate rheology. The format is physicochemical. The note with it: 10 Hz, 5% strain. On the procedure:
Rheology. Mechanical integrity of the Q2 hydrogel was assessed using a stress-controlled rheometer (Discovery Hybrid Rheometer 2, TA Instruments) equipped with a parallel plate geometry. After complete gelation of a 2 mM sample at 4° C., the sample was loaded onto the 8 mm diameter lower and upper plates with a 0.2 mm geometry gap. Strain and frequency settings were informed from previous Q hydrogel studies where the storage modulus (G′) and loss modulus (G″) were measured over the frequency range 0.1-10 Hz with a 5% oscillation strain.
Rheology. Q hydrogel variants were assessed for relative mechanical integrity with a stress-controlled rheometer (Discovery Hybrid Rheometer 2, TA Instruments) equipped with a parallel plate geometry. In parallel with microrheology measurements, 100 μL of each variant was incubated at 4° C. Upon gelation as assessed by microrheology, hydrogels were loaded onto an 8 mm diameter lower and upper plate with a 0.2 mm geometry gap. Storage modulus (G′) and loss modulus (G″) were measured from 0.1-10 Hz with 5% oscillation strain.

Series [2] is described as follows: TEM of hydrogel nanofibers. The note with it: gel after incubation at 4 °C. The format is physicochemical. On the procedure: as §1, with “microscope. The supramolecular assembly of Q2 and Q were monitored over the course of 60 and 144 hours, respectively (in correspondence with tube inversion and microrheology). TEM images were taken of the gel at times consistent with when microrheological measurements for Q2 for consistent fibril sizing.” for “microscope.”, “by” for “by a”, “min.” for “min. Between steps, filter paper was used to wick the grids.”
Transmission Electron Microscopy. Transmission electron microscopy (TEM) images were taken with a FEI Talos L120C transmission electron microscope. Samples were diluted to 50 μM and 3 μL was spotted on Formvar/carbon-coated copper grids followed by […] with water, and 3 μL staining with 1% v/v uranyl acetate solution each with incubation times of 1 min. Between steps, filter paper was used to gently wick the grids dry. Following imaging, minimum diameter nanofibers within the physically crosslinked hydrogel were sized in ImageJ software (Version 1.52q).

Series [3] can be described thus: Fluorescence recovery after photobleaching (FRAP). The note with it: one-phase association fit. Here is the method: Protein fibrils are capable of blue autofluorescence as a result of protein self-assembly. Fluorescent recovery after photobleaching (FRAP) is measured by photobleaching using a 405 nm laser and measuring the spot intensity over time. This behavior was previously confirmed in the Q protein in a recent characterization. Using the correlation between autofluorescence and fibrilization, the relative autofluorescence of the coiled-coil protein hydrogels was measured. […] To assess the relative laser response, hydrogels were subjected to FRAP imaging using two 100% intensity bleaches at 405 nm excitation followed by imaging at 2 second frame intervals (FIG. 53c).
Confocal Imaging and Fluorescence Recovery After Photobleaching (FRAP). FRAP experiments were performed with a Stellaris 8 Falcon laser scanning confocal microscope on an inverted DMi8 CS stand equipped with 63X NA 1.4 lens. Images were taken with a laser at 405 nm excitation. A pre-bleach image was taken followed by two bleach images using 100% laser intensity for 1.5 s. Following, 41 images were taken post-bleach at 2 s intervals. To measure recovery, FIJI (version 2.3.0) was used to automate background and recovery imaging following photobleaching. Independent background intensities were fit to a one-phase decay equation in GraphPad Prism. Background loss, as a result of photobleaching, from fit values were added to spot intensity values before being fit to a one-phase association equation in GraphPad Prism.

“Q9: Monte-Carlo output sequence with increased ΔEEbcf from the Q domain; probably SEQ ID NO: 18 (MRGSHHHHHHGSIEGRVKEIKFLKNTAPQQLRELQNTNMALQDVRELLQQQSTL) [Protein Q9]”: the “fiber diameter, largest population of sizes” value in the series “TEM of protein fibers” is reported as 1280±330 nm. Moreover, in “TEM of protein fibers” (50 mM NaH2PO4 pH 4.0), the “average protein fiber diameter (TEM)” value is recorded as 760±170 nm.
In series [1], “Q6: Q hydrogel variant from trimodal Monte Carlo search, SEQ ID NO: 15 (MRGSHHHHHHGSIEGRVKEITFIKKQIEQIAEEMKEINKAIHDIRHALENISKK) [Protein Q6]” had a solubility limit of 3000 µM and a UCST of 17.5 °C. Besides, in the series “Parallel plate rheology”, the “loss modulus G″” value is 13±6 Pa and 13.0 ± 5.7 Pa; the “storage modulus G′” value was 253±123 Pa and 252.9 ± 122.7 Pa. For the same substance, the “hydrogel fibril diameter (TEM)” value in series [2] amounted to 39.9±16.9 nm. In series [3], this substance gave a Halftime of 5.1 s, a K of 0.1 s⁻¹ and a Tau of 7.3 s.
For “Q7: Q hydrogel variant from trimodal Monte Carlo search, SEQ ID NO: 16 (MRGSHHHHHHGSIEGRVKEMTFIKKTIEQQAEEMKEINKAIHDIRHALENISKK) [Protein Q7]”, in series [1], the solubility limit was determined as 3000 µM and the UCST turned out to be 22.9 °C. In addition, in “Parallel plate rheology”, the “loss modulus G″” value is 21±8 Pa and 20.6 ± 7.9 Pa; the “storage modulus G′” value was 298±62 Pa and 297.5 ± 61.7 Pa. Further, the “hydrogel fibril diameter (TEM)” value in series [2] is recorded as 36.3±10.8 nm. Also, in series [3], the Halftime is 9.7 s, the K was found to be 0.1 s⁻¹ and the Tau is 13.9 s.
As to “Q4: Q hydrogel variant from Rosetta Monte Carlo search, SEQ ID NO: 13 (MRGSHHHHHHGSIEGRVKEITFIKKTIEQIAEEMKEINKAIHDIRHALENISKK) [Protein Q4]”, in series [1], the solubility limit turned out to be 4000 µM and the UCST was determined as 35.9 °C. In “Parallel plate rheology”, the “loss modulus G″” value was 15.0 ± 3.2 Pa; the “storage modulus G′” value is 70±20 Pa and 69.9 ± 19.7 Pa. For the same substance, the “hydrogel fibril diameter (TEM)” value in series [2] worked out at 27.2±8.7 nm. In series [3], this substance yielded a Halftime of 5.7 s, a K of 0.1 s⁻¹ and a Tau of 8.2 s.
